The values below are quoted from earlier work in publication PMC5735807.

In one series the target is Fas (Homo sapiens) (UniProt P25445).
The target of a further series is CD36 (Homo sapiens) (UniProt P16671).
Sequence of CD36 (Homo sapiens) (P16671 2-472): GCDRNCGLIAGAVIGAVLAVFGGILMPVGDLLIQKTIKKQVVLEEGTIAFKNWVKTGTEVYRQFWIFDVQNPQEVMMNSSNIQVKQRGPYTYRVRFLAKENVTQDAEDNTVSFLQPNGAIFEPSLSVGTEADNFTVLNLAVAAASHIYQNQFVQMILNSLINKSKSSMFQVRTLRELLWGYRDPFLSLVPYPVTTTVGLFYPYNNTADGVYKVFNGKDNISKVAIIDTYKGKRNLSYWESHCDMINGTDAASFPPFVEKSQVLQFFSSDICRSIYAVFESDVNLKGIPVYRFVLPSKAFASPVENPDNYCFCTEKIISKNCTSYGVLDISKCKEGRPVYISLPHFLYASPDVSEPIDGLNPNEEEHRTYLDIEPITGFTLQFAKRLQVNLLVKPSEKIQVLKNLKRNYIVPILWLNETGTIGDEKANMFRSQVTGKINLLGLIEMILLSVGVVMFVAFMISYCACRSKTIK

Sequence of TSP1 (P07996 19-1170): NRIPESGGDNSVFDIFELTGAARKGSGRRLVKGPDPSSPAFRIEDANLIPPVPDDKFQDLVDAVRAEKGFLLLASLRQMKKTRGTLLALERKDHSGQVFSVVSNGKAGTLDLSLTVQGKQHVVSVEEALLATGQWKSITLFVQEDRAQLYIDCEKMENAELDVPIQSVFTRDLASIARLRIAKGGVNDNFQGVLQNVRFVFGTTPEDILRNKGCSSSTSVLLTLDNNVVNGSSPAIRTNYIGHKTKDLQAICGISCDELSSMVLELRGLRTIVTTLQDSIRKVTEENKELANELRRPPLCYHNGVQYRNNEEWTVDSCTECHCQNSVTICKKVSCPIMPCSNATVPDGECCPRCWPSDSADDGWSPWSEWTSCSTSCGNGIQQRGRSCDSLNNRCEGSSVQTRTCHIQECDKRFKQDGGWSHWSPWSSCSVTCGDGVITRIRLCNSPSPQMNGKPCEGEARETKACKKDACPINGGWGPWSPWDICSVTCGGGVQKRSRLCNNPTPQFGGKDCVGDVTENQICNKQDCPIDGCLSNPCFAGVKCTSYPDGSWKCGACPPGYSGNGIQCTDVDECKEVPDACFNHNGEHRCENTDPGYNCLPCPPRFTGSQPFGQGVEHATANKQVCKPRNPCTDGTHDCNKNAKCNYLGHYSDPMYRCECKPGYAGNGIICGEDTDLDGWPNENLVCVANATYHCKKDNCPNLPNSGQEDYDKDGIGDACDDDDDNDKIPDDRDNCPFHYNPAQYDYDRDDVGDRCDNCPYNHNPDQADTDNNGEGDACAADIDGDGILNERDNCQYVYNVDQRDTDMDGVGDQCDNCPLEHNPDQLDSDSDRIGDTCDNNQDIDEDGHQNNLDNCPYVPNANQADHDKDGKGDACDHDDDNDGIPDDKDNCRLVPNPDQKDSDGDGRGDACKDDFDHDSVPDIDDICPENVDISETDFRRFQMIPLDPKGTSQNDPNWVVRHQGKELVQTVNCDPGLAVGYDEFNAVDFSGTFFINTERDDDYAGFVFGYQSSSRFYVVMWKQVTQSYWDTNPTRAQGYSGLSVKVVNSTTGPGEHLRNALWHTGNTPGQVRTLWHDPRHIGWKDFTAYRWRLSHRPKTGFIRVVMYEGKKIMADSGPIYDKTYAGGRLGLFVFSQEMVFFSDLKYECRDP
Sequence of FasL (P48023 1-81): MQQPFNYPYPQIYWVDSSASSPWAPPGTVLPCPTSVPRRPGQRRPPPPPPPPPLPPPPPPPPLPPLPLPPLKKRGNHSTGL
Sequence of Fas (Homo sapiens) (P25445 26-335): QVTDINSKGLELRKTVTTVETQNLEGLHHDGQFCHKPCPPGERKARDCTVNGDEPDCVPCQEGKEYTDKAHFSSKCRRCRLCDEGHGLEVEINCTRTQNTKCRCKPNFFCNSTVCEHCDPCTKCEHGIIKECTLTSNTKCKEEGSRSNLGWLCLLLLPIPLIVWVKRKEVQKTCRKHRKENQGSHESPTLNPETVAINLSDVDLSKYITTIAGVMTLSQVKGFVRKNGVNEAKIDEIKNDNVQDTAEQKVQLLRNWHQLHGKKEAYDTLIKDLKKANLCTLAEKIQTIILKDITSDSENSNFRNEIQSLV

As for FasL (from UniProt P48023), the Kd in the series with Fas (Homo sapiens) was 0.0004 µM.
Take TSP1 (from UniProt P07996): the Kd with CD36 (Homo sapiens) was 0.23 µM.

As a reminder, the Kd is the free concentration of one partner at which half of the binding sites on the other are occupied at equilibrium, for simple one-to-one binding.
